Columns and labels:
[1] = Thermostability assay: residual OTA detoxification activity after 10 min incubation at 45-99° C. (T50); type: physicochemical; conditions: 0.1 mg/mL protein in 20 mM Tris-HCl pH 7.5, residual OTA detoxification activity relative to 4° C. reference aliquot
Description: Stability was determined in terms of thermostability. Notwithstanding, a person having skill in the art is aware that stability towards high temperature (e.g. more than 30° C.) often correlates with stability towards other non-standard conditions such as stability towards acidic or basic pH (e.g. below pH 6.5 or above pH 7.5, respectively), towards elevated salt concentrations, organic solvents or drying.
To determine the kinetic stability of the produced enzymes, thermostability assays were performed. To this end, purified protein samples were diluted to a protein concentration of 0.1 mg/mL in 20 mM Tris-HCl buffer pH 7.5 and aliquots were incubated in a thermocycler for 10 min at either 45, 55, 65, 75, 80, 85, 90, 95 or 99° C. After this incubation, the aliquots were stored at 4° C. until further analysis. A reference aliquot was stored at 4° C. throughout the incubation. Subsequently, all aliquots were assayed for residual OTA detoxification activity using the assay described in Example 3. Residual enzyme activities were calculated relative to the reference aliquot. The temperature range in which 50% of the initial activity was lost after the incubation (T50), in relation to the reference aliquot was determined.

[2] = OTA detoxification activity assay (specific activity, fluorescence reduction ex/em 390/450 nm); type: biochemical; conditions: for Specific OTA detoxification activities in U/g at pH 6.0 / Specific OTA detoxification activities in U/g at pH 7.5: 37° C., 200 ng/mL OTA, 100 mM sodium phosphate buffer
Procedure, shortened: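 Recombinant enzyme preparation with 200 ng/mL OTA in 100 mM sodium phosphate, at pH 6.0 and pH 7.5, 37° C. Degradation followed as the fall in fluorescence at ex/em 390/450 nm. Specific activity taken from the initial linear slope; one unit degrades 1 μmol OTA per min at a starting OTA of […].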

| Molecule | T50 (temperature at which 50% of the initial activity was maintained) [1] | Specific OTA detoxification activities in U/g at pH 6.0 ([2]; pH 6.0) [U/g] | Specific OTA detoxification activities in U/g at pH 7.5 ([2]; pH 7.5) [U/g] | Specific OTA detoxification activities in % compared to the enzyme of SEQ ID NO: 2, pH 6.0 ([2]; pH 6.0, SEQ ID NO: 2 = 100%) [%] | Specific OTA detoxification activities in % compared to the enzyme of SEQ ID NO: 2, pH 7.5 ([2]; pH 7.5, SEQ ID NO: 2 = 100%) [%] |
| --- | --- | --- | --- | --- | --- |
| 22 (protein, polypeptide 8) MQYDVAIKNGNVFTGTEFIGKMNIYISNGKISKVSKEDLNAKQEIDAKDMLVMPGLIDAHMHISGLKGGSLLKIMFEKPEYRALRATKWLEKLLLAGFTTVRDCGEPISISLKRAVNEGYIKGPKIIAAGKPITQTFGHGEFSHDIPLEFSISLGFSEICDGTESCIHAARKVLRDGSDFIKIFATGGVLSQRDRPDMPQLSFDEIRAIVNEAEKAGTYVAAHAHGDKGARIAIEAGIKTLEHGSLLKEDTLKLMLEKNISLTPTLTITEIIYKYGKTIGVDEWGLEKIVEVRENLHKVLRKAKELGITIITGTDMGFETGLEDYDIGKNWTEILLLTEVGGLSNEEALRAATYNSAKALGLNSGLIDEGKDADIIVIDGNPLENIKDVSKVVHVIKQGKLEVLDGKIINNY | >95 °C | 0.66 | 0.79 |  |  |
| 21 (protein, polypeptide 7) MTTPTRILTAVLALLASNACAADATPSTPHTVVLRAARMFDGASGKLVERPQLTIVGNKIVRIAQADKADVPAGAEVIDLGDATLLPGFIDAHVHLSGQGSDNWYGDFFDNMMRFPAEQALYGAYYARITLEAGFTSVRDVGSTDWVALGLRNAIDAGKVPGPRMLVSNYAVGSTGGHADQDPIPPHKLPLAGPLQGVCNGPEECRAAVRYQIKYGANVIKFMPSGGVLSLSDPVDAPELSQDEMNAVIGESHAWGRKVAAHAHGDKAAKMAVAAGVDSIEHGSFIEDDTLRAMKAKGVYLVPTISAIAHVEEKIATFPPVIAEKGRAAAAHLRQTFRHAVQIGVPIALGTDAGVGAHGTNAREFRYMVENGLSPAQSLLAGTSNAARLLGTIDRVGTLEAGKLADVVAVPGNPIADITVTERPVFVMKDGVVVRRGAVR | 65-75 °C | 20.53 | 30.87 |  |  |
| 368 (protein, exemplary polypeptide) MTTPTRILTAVLSLLAANACAADAAPATPHTVVLRAARMFDGASGKLVERPQLTIVGNKIVRIAQADKADVPAGAEVIDLGDATLLPGFIDAHVHLSGQGSDNWYGDFFDNMMRFPAEQALYGAYYARITLEAGFTSVRDVGSTDWVALGLRNAIDAGKVPGPRMLVSNYAVGSTGGHADQDPIPPHKLPLAGPLQGVCNGPEECRAAVRYQIKYGANVIKFMPSGGVLSLSDPVDAPELSQDEMNAVIGESHAWGRKVAAHAPGDKAAKMAVAAGVDSIEHGSFIEDDTLRAMKAKGVYLVPTISAIAHVEEKIATFPPVIAEKGRAAAAHLRQTFRHAVQIGVPIALGTDAGVGAHGTNAREFRYMVENGLSPAQSLLAGTSNAARLLGTIDRVGTLEAGKLADVVAVPGNPIADITVTERPVFVMKDGVVVRRGAVR | 68 °C | 3.70 | 15.10 |  |  |
| 369 (protein, exemplary polypeptide) MRTRTRILTASLALLAANAWAADAMPSTPHTVVLRAARMFDGASGKLVEHPQLTIVGNKIVRVAQDDKAAVPAGADVIDLGDATLLPGFIDAHVHLSGQSSDNWYGDFFDNMMRFPAEQALYGAWYARITLEAGFTSVRDVGSTDWIALGLRNAIDAGKVPGPRMLVSNYAIGSTGGHADQDPIPPQKLAPAGPLQGVCNGPDECRAAVRYQIKYGANVIKFMPSGGVLSLSDPVDAPELTQEEMNAVVGEAHAWGRKVAAHAHGDKAAKMAVAAGVDSIEHGSFLEDDTLRMMKAKGVYLVPTISAVMHVEEKIATFPPVIAEKGRAAAAHVRQTFRHAVQIGVPIALGTDAGVGAHGTNAREFRYMVDNGMAPAQALLAGTSNAARLLGTIDRVGTLEAGKLADVVAVPGNPVADITVTERPVFVMKDGVVVRRGAVR | 68 °C | 122.50 | 159.80 |  |  |
| 18 (protein, polypeptide 4) MPPMRTRTRILTASLALLAANAWAADAMPSTPHTVVLRAARMFDGASGKLVEHPQLTIVGNKIVRVAQDDKAAVPAGADVIDLGDATLLPGFIDAHVHLSGQSSDNWYGDFFDNMMRFPAEQALYGAWYARITLEAGFTSVRDVGSTDWIALGLRNAIDAGKVPGPRMLVSNYAIGSTGGHADQDPIPPQKLAPAGPLQGVCNGPDECRAAVRYQIKYGANVIKFMPSGGVLSLSDPVDAPELTQEEMNAVVGEAHAWGRKVAAHAHGDKAAKMAVAAGVDSIEHGSFLEDDTLRMMKAKGVYLVPTISAVMHVEEKIATFPPVIAEKGRAAAAHVRQTFRHAVQIGVPIALGTDAGVGAHGTNAREFRYMVDNGMAPAQALLAGTSNAARLLGTIDRVGTLEAGKLADVVAVPGNPVADITVTERPVFVMKDGVVVRRGAVR | 81-83 °C | 39.30 | 147.14 |  |  |
| 2 (protein, polypeptide 2) MYSLAIRNGIVFDGEKFIGKTNIYVDGDKIVKITNERLDAKEEVNAEGYFVMPGLIDAHLHLTGIRGGSLLMGYLLDDPRTRLLRAANWARELLMAGFTTVRDCGEPNSIILRNAINEGIIPGPRIIAAGSPITQTFGHAELSHSLPLEWSIQLGFGEICDGVDECIKAARKVLRSGADFIKIMATGGVLSERDRPEWPQLTPEEMSAIVREAEKVGTYVAAHAHGDKGARIAVEAGVRTIEHGSLITEETVKLMAEKGVSLTPTLSIQELIYKYGKQMGIDPWGLEKIGQVREGVINSIKLARKYGVMILAGTDLGFKTGLDIDMGKNWVEVKLLVELGGLSSEEALRAATGNASKMLRLNTGIIREGYLADIVLINGNPLENINDIARVSTVIKGGKVTVENGKLI | >95 °C | 0.61 | 0.73 |  |  |
| 39 (protein, exemplary polypeptide) MYSLAIRNGIVFDGEKFIGKTNIYVDGDKIVKITNERLDAKEEVNAEGYFVMPGLIDAHLHLTGIRGGSLLMGYLLDDPRTRLLRAANWARELLMAGFTTVRDCGEPNSIILRNAINEGIIPGPRIIAAGSPITQTFGHAELSHSLPLEWSIQLGFGEICDGVDECIKAARKVLRSGADFIKIMATGGVLSERDRPEWPQLTPEEMSAIVREAEKVGTYVAAHAHGDKGARIAVEAGVRTIEHGSLITEETVKLMAEKGVSLTPTLSAQELIYKYGKQMGIDPWGLEKIGQVREGVINSIKLARKYGVMILAGTDLGFKTGLDIDMGKNWVEVKLLVELGGLSSEEALRAATGNASKMLRLNTGIIREGYLADIVLINGNPLENINDIARVSTVIKGGKVTVENGKLI | >99 °C |  |  | 8.00 | 15.00 |
| 1 (protein, polypeptide 1) APAAPHTVVLRAARMFDGASGKLVDHPQLTIVGNKIVRIAQGDKAEVPAGAEVVDLGDATLLPGFIDAHVHLSGQSSDNWYGDFFDNMMRFPAEQALYGAYYARITLEAGFTSVRDVGSTDWVALGLRNAIDAGKVPGPRMLVSNYAVGSTGGHADQDPIPPHKLPLAGPLQGVCNGPEECRAAVRYQIKYGANVIKFMPSGGVLSLSDPVDAPELSQDEMNAVIGESHAWGRKVAAHAHGDKAAKMAVAAGVDSIEHGSFIEDDTLRAMKAKNVYLVPTISAIAHVEEKIGTFPPVIAEKGRAAAAHLRQTFRHAVQIGVPIALGTDAGVGAHGSNAREFRYMVENGLTPAQALLAGTANAARLLGTFDRVGTLEAGKLADVVAVPGNPIADITVTERPLFVMKDGVVVRRDAVR | 65-75 °C | 99.00 | 191.89 |  |  |
| 17 (protein, polypeptide 3) MTTRLRILTASLALLAANACAADAAPSTPHTVVLRAARMFDGASGKIVEHPQLTIVGNKIVRIAQGKEEDNRTGIPAGADVIDLGDATLLPGFIDAHVHLSGQSSDNWYGDFFDNMMRFPAEQALYGAYYARITLEAGFTSVRDVGSTDWIALGLRNAIDAGKVPGPRMLVSNYAVGSTGGHADQDPIPPQKLAPAGPLQGVCNGPEECRAAVRYQIKYGANVIKFMPSGGVLSLSDPVDAPELSQDEMNAVIGEAHAWGRKVAAHAHGDKAAKMAVTAGVDSIEHGSFLEDDTLRMMKAKGVYLVPTISAIAHVEEKIATFPSVIAEKGRAAASHSRQMFRHAVQIGVPIALGTDAGVGAHGTNAREFRYMVDNGLTPAQSLMAGTANAARLLGTFDRVGTLEAGKLADVVAVPGNPIADITVTERPVFVMKDGVVVRRGAVR | 65-75 °C | 11.65 | 28.44 |  |  |
